Source: US20260258115A1 (MAPP BIOPHARMACEUTICAL, published 2026)
Residue numbers refer to the chain shown, from its start.

B1: ADI-20976 (antibody, V domains shown)
VH: QVQLVESGGDLVQKGGSLRLSCAASGFTFDNYAMTWIRQAPGQGLEWVSTVSGFVLGTGYTTYYADSVKGRFTISRDSSKNTVYLQLNSLRAEDTAVYYCAKCAATRNECLWDYLQQWGQGTTVTVSS
VL: EIVMTQSPSSLSASVGDRVTITCRASQSVSIYLNWYQQKGGKAPKLLIYGASALQRGVPSRFSGSGSGTDFTLTITSLQPEDFATYFCHQSYSAPQTFGQGTKVDIK
B2: ADI-14590 (antibody, V domains shown)
VH: EVQLVESGAEVKKPGESLKISCKGSGYSFATYWIGWVRQMPGKGLEWMGIIYPGDSDTRYSPSFQGQVTISADKSISTAYLQWSSLKASDTAIYYCARAKLPVAGLYYFDYWGQGTLVTVSS
VL: DIQLTQSPSSLSASVGDRVTITCRASQGISSTLAWYQQKPGKAPKLLIYDASSLESGVPSRFSGSGSGTDFTLTISSLHPEDFATYYCQQFNTYPTFGGGTKVEIK
B3: ADI-14607 (antibody, V domains shown)
VH: EVQLLESGGGVVQSGRSLRLSCAASGFTFNNYAMHWVRQAPGKGLEWVAVISFDGGNKFYGDSVQGRFTISRDNSKNTLYLQTNSLRPEDTAVYYCARDRWEIQIGLDIWGQGTTVTVSS
VL: SYVLTQPPSVSVSPGQTARITCSGDALARQNAYWYQQKPGQAPVLVMYRDTGRPSGIPERFSGSSSGTTVTLTISEVQAEDEADYYCQSADSSGAYVFGTGTKVTVL
B4: ADI-20963 (antibody, V domains shown)
VH: EVQLVESGGGLAKPGGSLRLSCAASGFTFSHYNMNWVRQAPGKGLEWVSSISSTGFHIYYADSVKGRFVISRDNAENSLHLQMNSLRADDTGLYYCVRAEYYYGSGSAGHYFDSWGQGTLVTVSS
VL: SYVLTQPPSVSVAPGHTAKITCGGSIIGTKSVHWYQQKPGQAPVLVVYDDSDRPSGIPERLSGSRSGNTATLTITRVEAGDEADYYCQVWDSSSEHAGVFGGGTKLTVL
B5: ADI-14592 (antibody, V domains shown)
VH: QVQLVQSGAEVKKPGESLKISCKGSGYTFTNYWIGWVRQMPGKGLEWMGIIYPDDSDTRYSPSFQGQVTISVDKSINTAYLQWSSLRASDTAIYYCACSNWPHYFDSWGQGTLVTVSS
VL: NFMLTQPHSVSESPGKTVTISCTRSSGNIAGNYVQWYQQRPGSAPTTVIYEDNQRPSGVPDRFSGSIDSSSNSASLTISGLKTEDEAVYYCQSYHPGNWVFGGGTKLTVL
B6: ADI-14593 (antibody, V domains shown)
VH: QVQLVQSGAEVKKPGESLKISCKGSGYSFSSYWVAWVRQMPGKGLEWMGIIYPADSDTRYSPSFQGQVTISADKSDSTAYLQWGSLKASDTAMYYCARSLYGSGDYFDYWGQGTLVTVSS
VL: B5 VL with K16R, T19I, N28S, G31T, V88D, H95G, P96S, N98D, W99V, L107V
B7: ADI-20968 (antibody, V domains shown)
VH: QVQLQQWGAGLLKPSETLSLTCAMYGGSFSDDYWSWIRQPPGKGLEWIGEVNHGGSTNYNTSLKSRVTISADTSKKQFSLKLRSVTAADTAVYFCARGWRYCNATTCYSKAFDIWGQGTMVTVSS
VL: DIQMTQSPSSLSASVGDRVTITCQASQDIDIYLIWYQQKPGRAPKLLIYDASNLKTGVPSRFSGSGSGTEFTFTINNLQPEDFATYYCQQFHDLPLTFGGGTKLEIK
B8: ADI-14599 (antibody, V domains shown)
VH: EVQLVESGGGLVQPGRSLRLSCKTSGFTFGDYAMSWVRQAPGQGLDWVGFIRTKAYGGTTEYAASVKGRFTLSRDDSKSIAYLQMNSLKTEDTAVYYCKSGGQFDYWGRGTLVTVSS
VL: NFMLTQPHSVSGSPGKTVTISCTGSSGSIASNYVQWYQQRPGSAPTTVICEDNQRPSGVPDRFSGSIDSSSNSASLTISGLKTEDEADYYCQSYDRSNQEVFGGGTKLTVL
B9: ADI-20960 (antibody, V domains shown)
VH: QVQLQQWGAGVLKPSETLSLTCAVNGRSLSGHYWSWIRQTPGKGLEWIGEINNSGGTHYSPSLKSRVIISGDTAKNQLSLKLSSVTAADTAVYYCAKGSAEWYFDLWGRGTLVTVSS
VL: DIRVTQSPSTLSASVGDRVTITCRASQSVSTWLAWYQQKPGKPPSLLIFKASTLESGVPSRFSGSGSGTEFTLTISSLQPDDFATYYCQQYNTYSPWTFGPGTKVEIK
B10: ADI-20972 (antibody, V domains shown)
VH: QVQLQQWGAGLLRPSETLSLTCAVSGGSFSGHYWSWIRQPPGKGLEWIGGINHSGNTNYSPSLRSRVTMSVDTSRNQFSLMLRSVTAADTAVYFCARNVPNLYGDYPRWFDPWGQGTLVTVSS
VL: QSVLTQPASVSGSPGQSITISCTGTSSDVGGFNYVSWYQHHPGKAPKLMIYDVNNRPSGASNRFSGSKSGNTASLTISGLQAEDEADYYCSSYRSSDTLYVFGTGTKVTVL
B11: ADI-14594 (antibody, V domains shown)
VH: QVQLVQSGAEVKKPGASVKLSCKASGYTFTTYTINWVRQAPGQGLEWMGWISGYNGNTDYAQKLQGRFTMTTDTSTNTAYMELRSLTSDDTAVYYCAKGGGGSESYFDYWGQGTLVTVSS
VL: SYELTQPPSVSVAPGKTARISCGGNNIGSKSVHWYQQKPGQAPVLVIYYDRDRPSGIPERFSGSNSGNTATLTISRVEAGDEADYYCQLWDRSSDHPYVFGTGTKVTVL
B12: ADI-20967 (antibody, V domains shown)
VH: EVQLLESGGGVVQPGRSVRLSCAASGFSFSSYALHWVRQAPGKGLEWVGVIWYEESNKYYADPVKGRFTISRDNSKNTLYLQMNSLRDEDTAVYYCARKGVATAGLDYWGQGTLVTVSS
VL: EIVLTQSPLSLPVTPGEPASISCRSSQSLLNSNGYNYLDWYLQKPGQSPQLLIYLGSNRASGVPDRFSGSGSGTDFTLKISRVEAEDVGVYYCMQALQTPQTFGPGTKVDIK
notes: also called Ab 220
B13: ADI-14595 (antibody, V domains shown)
VH: EVQLLESGGGLVQPGGSLRLSCAASGFTFSIYSMNWVRQAPGKGLEWISYISRSGSTIFYADSVKGRFTISRDDAKNSLFLQMTSLRDADTAVYYCARVDCSNNKCYDYWGQGTLVTVSS
VL: DIQLTQSPATLSLSPGERATLSCRASQSISSFLAWYQQKPGQAPRLLIYDASKRATGTPARFSGGGSGRDFTLTISSLEPEDFAVYYCQQRSSWPLYTFGQGTKVEIK
B14: ADI-20975 (antibody, V domains shown)
VH: QVQLVESGTHVKKPGASVKVSCEASDDTFNNKGIVWVRQAPGQGLEWMGWIRPNNGNTKYAQKFQGRVTMTTDASTNTAYMELRSLRSGDTAVYYCAREQFKWNDFYFDYWGQGILVTVSS
VL: SYELMQPPSVSVAPGQTATITCGGSNIGSETVHWYQQKPGQAPVLVVHDDTDRPSGIPERFSGSNSGNTATLTISGVEAGDEADFYCQVRDSRTDDVVFGGGTKLTVL

target: RSV prefusion F (preF), subtype A (respiratory syncytial virus, subtype A, UniProt P03420 26-513); test: BLI, IgG

Binder | Kd [nM] | binding result
B1 | 1.86 | –
B2 | 13.2 | –
B3 | 1.7 | –
B4 | 0.791 | –
B5 | 2.4 | –
B6 | 2.33 | –
B7 | 0.135 | –
B8 | 0.102 | –
B9 | 0.22 | –
B10 | 0.888 | –
B11 | – | no binding
B12 | 2.23 | –
B13 | 2.19 | –
B14 | 0.092 | –

target: T1, RSV postfusion F (postF), subtype A (respiratory syncytial virus, subtype A, UniProt P03420 26-513); test: BLI, IgG
T1 construct: also called F ΔFP; Postfusion subtype A

Binder | Kd [nM]
B1 | 0.263
B2 | 2.68
B3 | 0.381
B4 | 0.0909
B5 | 0.136
B6 | 0.161
B7 | 0.157
B8 | 0.636
B9 | 0.163
B10 | 0.401
B11 | 0.257
B12 | 0.257
B13 | 1.3
B14 | 0.146

target: RSV prefusion F (preF), subtype B (respiratory syncytial virus, subtype B); test: BLI, IgG

Binder | Kd [nM]
B1 | 0.955
B2 | 5.99
B3 | 0.64
B4 | 3.14
B5 | 0.301
B6 | 0.358
B7 | 0.127
B8 | 0.622
B9 | 0.23
B10 | 6.06
B11 | 18.2
B12 | 4.08
B13 | 16
B14 | 0.0958

target: T2, RSV postfusion F (postF), subtype B (respiratory syncytial virus, subtype B); test: BLI, IgG
T2 construct: also called F ΔFP; Postfusion subtype B

Binder | Kd [nM]
B1 | 0.304
B2 | 0.967
B3 | 0.227
B4 | 0.614
B5 | 0.0932
B6 | 0.108
B7 | 0.15
B8 | 0.358
B9 | 0.163
B10 | 3.48
B11 | 0.214
B12 | 3.45
B13 | 14.4
B14 | 0.129
